# Measured values taken from patent publication US20220048967A1 (published 2022).
# Numbered stars: 1 amine (or outer) side, 2 acyl side, 3 side chain; on linkers, the order of the positions; unused ones are H or OH. Square brackets hold non-standard residues; d marks the D form. Side chains are listed from the residue outwards. Ends that are not written are not given here. * marks the point of attachment. C20 diacid = O=C(O)CCCCCCCCCCCCCCCCCCC(=O)*; γGlu = O=C(O)[C@H](CCC(=O)[*:2])N[*:1]; AEEA = NCCOCCOCC(=O)O; Aib = CC(C)(N)C(=O)O
# B1: Example 27 (peptide)
# peptide: Y[Aib]EGTFTSDYSILK([AEEA-AEEA-γGlu-C20 diacid])DKIAQ[Aib]AFIEYLIEGGPSSGAPPPS-NH2
# modifications: N-terminus assumed
# SMILES: CC[C@H](C)[C@H](NC(=O)[C@H](CCCCN)NC(=O)[C@H](CC(=O)O)NC(=O)[C@H](CCCCNC(=O)COCCOCCNC(=O)COCCOCCNC(=O)CC[C@H](NC(=O)CCCCCCCCCCCCCCCCCCC(=O)O)C(=O)O)NC(=O)[C@H](CC(C)C)NC(=O)[C@@H](NC(=O)[C@H](CO)NC(=O)[C@H](Cc1ccc(O)cc1)NC(=O)[C@H](CC(=O)O)NC(=O)[C@H](CO)NC(=O)[C@@H](NC(=O)[C@H](Cc1ccccc1)NC(=O)[C@@H](NC(=O)CNC(=O)[C@H](CCC(=O)O)NC(=O)C(C)(C)NC(=O)[C@@H](N)Cc1ccc(O)cc1)[C@@H](C)O)[C@@H](C)O)[C@@H](C)CC)C(=O)N[C@@H](C)C(=O)N[C@@H](CCC(N)=O)C(=O)NC(C)(C)C(=O)N[C@@H](C)C(=O)N[C@@H](Cc1ccccc1)C(=O)N[C@H](C(=O)N[C@@H](CCC(=O)O)C(=O)N[C@@H](Cc1ccc(O)cc1)C(=O)N[C@@H](CC(C)C)C(=O)N[C@H](C(=O)N[C@@H](CCC(=O)O)C(=O)NCC(=O)NCC(=O)N1CCC[C@H]1C(=O)N[C@@H](CO)C(=O)N[C@@H](CO)C(=O)NCC(=O)N[C@@H](C)C(=O)N1CCC[C@H]1C(=O)N1CCC[C@H]1C(=O)N1CCC[C@H]1C(=O)N[C@@H](CO)C(N)=O)[C@@H](C)CC)[C@@H](C)CC
# B2: Example 28 (peptide)
# peptide: Y[Aib]EGTFTSDYSILLK([AEEA-AEEA-γGlu-C20 diacid])KIAQ[Aib]AFIEYLIEGGPSSGAPPPS-NH2
# modifications: N-terminus assumed
# SMILES: CC[C@H](C)[C@H](NC(=O)[C@H](CCCCN)NC(=O)[C@H](CCCCNC(=O)COCCOCCNC(=O)COCCOCCNC(=O)CC[C@H](NC(=O)CCCCCCCCCCCCCCCCCCC(=O)O)C(=O)O)NC(=O)[C@H](CC(C)C)NC(=O)[C@H](CC(C)C)NC(=O)[C@@H](NC(=O)[C@H](CO)NC(=O)[C@H](Cc1ccc(O)cc1)NC(=O)[C@H](CC(=O)O)NC(=O)[C@H](CO)NC(=O)[C@@H](NC(=O)[C@H](Cc1ccccc1)NC(=O)[C@@H](NC(=O)CNC(=O)[C@H](CCC(=O)O)NC(=O)C(C)(C)NC(=O)[C@@H](N)Cc1ccc(O)cc1)[C@@H](C)O)[C@@H](C)O)[C@@H](C)CC)C(=O)N[C@@H](C)C(=O)N[C@@H](CCC(N)=O)C(=O)NC(C)(C)C(=O)N[C@@H](C)C(=O)N[C@@H](Cc1ccccc1)C(=O)N[C@H](C(=O)N[C@@H](CCC(=O)O)C(=O)N[C@@H](Cc1ccc(O)cc1)C(=O)N[C@@H](CC(C)C)C(=O)N[C@H](C(=O)N[C@@H](CCC(=O)O)C(=O)NCC(=O)NCC(=O)N1CCC[C@H]1C(=O)N[C@@H](CO)C(=O)N[C@@H](CO)C(=O)NCC(=O)N[C@@H](C)C(=O)N1CCC[C@H]1C(=O)N1CCC[C@H]1C(=O)N1CCC[C@H]1C(=O)N[C@@H](CO)C(N)=O)[C@@H](C)CC)[C@@H](C)CC
# B3: Example 29 (peptide)
# peptide: Y[Aib]EGTFTSDYSILLDK([AEEA-AEEA-γGlu-C20 diacid])IAQ[Aib]AFIEYLIEGGPSSGAPPPS-NH2
# modifications: N-terminus assumed
# SMILES: CC[C@H](C)[C@H](NC(=O)[C@H](CCCCNC(=O)COCCOCCNC(=O)COCCOCCNC(=O)CC[C@H](NC(=O)CCCCCCCCCCCCCCCCCCC(=O)O)C(=O)O)NC(=O)[C@H](CC(=O)O)NC(=O)[C@H](CC(C)C)NC(=O)[C@H](CC(C)C)NC(=O)[C@@H](NC(=O)[C@H](CO)NC(=O)[C@H](Cc1ccc(O)cc1)NC(=O)[C@H](CC(=O)O)NC(=O)[C@H](CO)NC(=O)[C@@H](NC(=O)[C@H](Cc1ccccc1)NC(=O)[C@@H](NC(=O)CNC(=O)[C@H](CCC(=O)O)NC(=O)C(C)(C)NC(=O)[C@@H](N)Cc1ccc(O)cc1)[C@@H](C)O)[C@@H](C)O)[C@@H](C)CC)C(=O)N[C@@H](C)C(=O)N[C@@H](CCC(N)=O)C(=O)NC(C)(C)C(=O)N[C@@H](C)C(=O)N[C@@H](Cc1ccccc1)C(=O)N[C@H](C(=O)N[C@@H](CCC(=O)O)C(=O)N[C@@H](Cc1ccc(O)cc1)C(=O)N[C@@H](CC(C)C)C(=O)N[C@H](C(=O)N[C@@H](CCC(=O)O)C(=O)NCC(=O)NCC(=O)N1CCC[C@H]1C(=O)N[C@@H](CO)C(=O)N[C@@H](CO)C(=O)NCC(=O)N[C@@H](C)C(=O)N1CCC[C@H]1C(=O)N1CCC[C@H]1C(=O)N1CCC[C@H]1C(=O)N[C@@H](CO)C(N)=O)[C@@H](C)CC)[C@@H](C)CC
# B4: Example 30 (peptide)
# peptide: Y[Aib]EGTFTSDYSILLDKIK([AEEA-AEEA-γGlu-C20 diacid])Q[Aib]AFIEYLIEGGPSSGAPPPS-NH2
# modifications: N-terminus assumed
# SMILES: CC[C@H](C)[C@H](NC(=O)[C@H](CC(C)C)NC(=O)[C@H](Cc1ccc(O)cc1)NC(=O)[C@H](CCC(=O)O)NC(=O)[C@@H](NC(=O)[C@H](Cc1ccccc1)NC(=O)[C@H](C)NC(=O)C(C)(C)NC(=O)[C@H](CCC(N)=O)NC(=O)[C@H](CCCCNC(=O)COCCOCCNC(=O)COCCOCCNC(=O)CC[C@H](NC(=O)CCCCCCCCCCCCCCCCCCC(=O)O)C(=O)O)NC(=O)[C@@H](NC(=O)[C@H](CCCCN)NC(=O)[C@H](CC(=O)O)NC(=O)[C@H](CC(C)C)NC(=O)[C@H](CC(C)C)NC(=O)[C@@H](NC(=O)[C@H](CO)NC(=O)[C@H](Cc1ccc(O)cc1)NC(=O)[C@H](CC(=O)O)NC(=O)[C@H](CO)NC(=O)[C@@H](NC(=O)[C@H](Cc1ccccc1)NC(=O)[C@@H](NC(=O)CNC(=O)[C@H](CCC(=O)O)NC(=O)C(C)(C)NC(=O)[C@@H](N)Cc1ccc(O)cc1)[C@@H](C)O)[C@@H](C)O)[C@@H](C)CC)[C@@H](C)CC)[C@@H](C)CC)C(=O)N[C@@H](CCC(=O)O)C(=O)NCC(=O)NCC(=O)N1CCC[C@H]1C(=O)N[C@@H](CO)C(=O)N[C@@H](CO)C(=O)NCC(=O)N[C@@H](C)C(=O)N1CCC[C@H]1C(=O)N1CCC[C@H]1C(=O)N1CCC[C@H]1C(=O)N[C@@H](CO)C(N)=O
# B5: Example 31 (peptide)
# peptide: Y[Aib]EGTFTSDYSILLDKIAK([AEEA-AEEA-γGlu-C20 diacid])[Aib]AFIEYLIEGGPSSGAPPPS-NH2
# modifications: N-terminus assumed
# SMILES: CC[C@H](C)[C@H](NC(=O)[C@H](CCCCN)NC(=O)[C@H](CC(=O)O)NC(=O)[C@H](CC(C)C)NC(=O)[C@H](CC(C)C)NC(=O)[C@@H](NC(=O)[C@H](CO)NC(=O)[C@H](Cc1ccc(O)cc1)NC(=O)[C@H](CC(=O)O)NC(=O)[C@H](CO)NC(=O)[C@@H](NC(=O)[C@H](Cc1ccccc1)NC(=O)[C@@H](NC(=O)CNC(=O)[C@H](CCC(=O)O)NC(=O)C(C)(C)NC(=O)[C@@H](N)Cc1ccc(O)cc1)[C@@H](C)O)[C@@H](C)O)[C@@H](C)CC)C(=O)N[C@@H](C)C(=O)N[C@@H](CCCCNC(=O)COCCOCCNC(=O)COCCOCCNC(=O)CC[C@H](NC(=O)CCCCCCCCCCCCCCCCCCC(=O)O)C(=O)O)C(=O)NC(C)(C)C(=O)N[C@@H](C)C(=O)N[C@@H](Cc1ccccc1)C(=O)N[C@H](C(=O)N[C@@H](CCC(=O)O)C(=O)N[C@@H](Cc1ccc(O)cc1)C(=O)N[C@@H](CC(C)C)C(=O)N[C@H](C(=O)N[C@@H](CCC(=O)O)C(=O)NCC(=O)NCC(=O)N1CCC[C@H]1C(=O)N[C@@H](CO)C(=O)N[C@@H](CO)C(=O)NCC(=O)N[C@@H](C)C(=O)N1CCC[C@H]1C(=O)N1CCC[C@H]1C(=O)N1CCC[C@H]1C(=O)N[C@@H](CO)C(N)=O)[C@@H](C)CC)[C@@H](C)CC
# B6: Example 32 (peptide)
# peptide: Y[Aib]EGTFTSDYSILLDKIAQ[Aib]K([AEEA-AEEA-γGlu-C20 diacid])FIEYLIEGGPSSGAPPPS-NH2
# modifications: N-terminus assumed
# SMILES: CC[C@H](C)[C@H](NC(=O)[C@H](CCCCN)NC(=O)[C@H](CC(=O)O)NC(=O)[C@H](CC(C)C)NC(=O)[C@H](CC(C)C)NC(=O)[C@@H](NC(=O)[C@H](CO)NC(=O)[C@H](Cc1ccc(O)cc1)NC(=O)[C@H](CC(=O)O)NC(=O)[C@H](CO)NC(=O)[C@@H](NC(=O)[C@H](Cc1ccccc1)NC(=O)[C@@H](NC(=O)CNC(=O)[C@H](CCC(=O)O)NC(=O)C(C)(C)NC(=O)[C@@H](N)Cc1ccc(O)cc1)[C@@H](C)O)[C@@H](C)O)[C@@H](C)CC)C(=O)N[C@@H](C)C(=O)N[C@@H](CCC(N)=O)C(=O)NC(C)(C)C(=O)N[C@@H](CCCCNC(=O)COCCOCCNC(=O)COCCOCCNC(=O)CC[C@H](NC(=O)CCCCCCCCCCCCCCCCCCC(=O)O)C(=O)O)C(=O)N[C@@H](Cc1ccccc1)C(=O)N[C@H](C(=O)N[C@@H](CCC(=O)O)C(=O)N[C@@H](Cc1ccc(O)cc1)C(=O)N[C@@H](CC(C)C)C(=O)N[C@H](C(=O)N[C@@H](CCC(=O)O)C(=O)NCC(=O)NCC(=O)N1CCC[C@H]1C(=O)N[C@@H](CO)C(=O)N[C@@H](CO)C(=O)NCC(=O)N[C@@H](C)C(=O)N1CCC[C@H]1C(=O)N1CCC[C@H]1C(=O)N1CCC[C@H]1C(=O)N[C@@H](CO)C(N)=O)[C@@H](C)CC)[C@@H](C)CC
# Molecular target: human GLP-1 receptor (human, UniProt P43220 24-463)
# Experiment: cell-based or functional assay
Binder,hGLP1R cAMP EC50 ratio,hGLP1R cAMP Rel EC50 [pM]
B1,0.123,557
B2,0.00166,32700
B3,0.0671,999
B4,0.0331,1840
B5,0.0708,891
B6,0.136,498

# Molecular target: T1, human GIP receptor (human, UniProt P48546 22-466)
# T1 sequence (looked up): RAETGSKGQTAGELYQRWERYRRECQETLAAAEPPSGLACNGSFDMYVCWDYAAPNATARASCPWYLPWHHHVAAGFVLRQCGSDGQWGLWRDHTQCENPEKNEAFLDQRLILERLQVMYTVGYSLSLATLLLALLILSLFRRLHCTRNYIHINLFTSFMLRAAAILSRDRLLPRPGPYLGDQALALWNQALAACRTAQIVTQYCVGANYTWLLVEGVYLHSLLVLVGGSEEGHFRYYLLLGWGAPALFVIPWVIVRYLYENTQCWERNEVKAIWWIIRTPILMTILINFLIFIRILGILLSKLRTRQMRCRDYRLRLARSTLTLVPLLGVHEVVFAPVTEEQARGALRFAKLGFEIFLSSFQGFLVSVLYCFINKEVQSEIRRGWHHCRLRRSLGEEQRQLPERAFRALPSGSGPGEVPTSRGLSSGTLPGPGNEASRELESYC
# Experiment: cell-based or functional assay
Binder,hGIPR cAMP EC50 ratio,hGIPR cAMP Rel EC50 [pM]
B1,1.9,78.9
B2,0.106,1660
B3,0.536,320
B4,1.5,114
B5,0.456,388
B6,0.84,179
